Holding throughout (conditions): both partners purified
Assay [1] addresses T1, KAP1 S33-K434 (human, UniProt Q13263 33-434).
T1 construct: KAP1 (TRIM28), human, UniProt Q13263, residues S33-K434 (RBCC domain); The crystal structures of shorter RBCC constructs show an antiparallel homodimer; also called KAP1 RBCC (S33-K434); KAP1 RBCC; source: E. coli BL-21 CodonPlus (DE3)-RP, purified (Ni-NTA, Ulp1, Mono Q)
Nature of the assay: co-IP; purified SMARCAD1 fragments (FLAG-CUE1,2, FLAG-CUE1) and KAP1 RBCC, 9.6μg each in 240μL, 4°C 1 hour; anti-FLAG M2 affinity gel 3 hours.

In assay [2] the target is T1, KAP1 S33-K434. The assay is described as follows: ITC; MicroCal ITC200, 20°C; KAP1 RBCC (9-18 μM) in the cell, SMARCAD1 CUE1 or CUE1,2 (90-300 μM) in the syringe; 10 mM Tris-HCl pH 7.9, 100 mM NaCl, 5 mM β-ME; One set of sites model. On the technique in general: ITC needs no label: the signal is the heat of the interaction.
Assay [3] deals with T2, Ubiquitin (UniProt P0CG48 1-76).
T2 construct: ubiquitin, monomeric, the cut product of a ubiquitin precursor; also called mono-Ub; monomeric ubiquitin; source: bought: Boston Biochem (purified recombinant)
The assay is described as follows: ITC; MicroCal ITC200, 10°C; 120 μM SMARCAD1 CUE1 or CUE1,2 in the cell, 9.8 mM mono-Ub in the syringe; 10 mM Tris-HCl pH 7.9, 100 mM NaCl, 5 mM β-ME; One set of sites model.

The target of assay [4] is T3, FLAG-SMARCAD1 (WT) (human, UniProt Q9H4L7 1-1026).
T3 construct: SMARCAD1, human, UniProt Q9H4L7, full length; also called wild-type SMARCAD1; pET28a-SUMO-F-SMARCAD1; source: E. coli BL-21 CodonPlus (DE3)-RIL, purified (HisTrap, Ulp1, heparin, ProSwift SAX)
T3 sequence (looked up): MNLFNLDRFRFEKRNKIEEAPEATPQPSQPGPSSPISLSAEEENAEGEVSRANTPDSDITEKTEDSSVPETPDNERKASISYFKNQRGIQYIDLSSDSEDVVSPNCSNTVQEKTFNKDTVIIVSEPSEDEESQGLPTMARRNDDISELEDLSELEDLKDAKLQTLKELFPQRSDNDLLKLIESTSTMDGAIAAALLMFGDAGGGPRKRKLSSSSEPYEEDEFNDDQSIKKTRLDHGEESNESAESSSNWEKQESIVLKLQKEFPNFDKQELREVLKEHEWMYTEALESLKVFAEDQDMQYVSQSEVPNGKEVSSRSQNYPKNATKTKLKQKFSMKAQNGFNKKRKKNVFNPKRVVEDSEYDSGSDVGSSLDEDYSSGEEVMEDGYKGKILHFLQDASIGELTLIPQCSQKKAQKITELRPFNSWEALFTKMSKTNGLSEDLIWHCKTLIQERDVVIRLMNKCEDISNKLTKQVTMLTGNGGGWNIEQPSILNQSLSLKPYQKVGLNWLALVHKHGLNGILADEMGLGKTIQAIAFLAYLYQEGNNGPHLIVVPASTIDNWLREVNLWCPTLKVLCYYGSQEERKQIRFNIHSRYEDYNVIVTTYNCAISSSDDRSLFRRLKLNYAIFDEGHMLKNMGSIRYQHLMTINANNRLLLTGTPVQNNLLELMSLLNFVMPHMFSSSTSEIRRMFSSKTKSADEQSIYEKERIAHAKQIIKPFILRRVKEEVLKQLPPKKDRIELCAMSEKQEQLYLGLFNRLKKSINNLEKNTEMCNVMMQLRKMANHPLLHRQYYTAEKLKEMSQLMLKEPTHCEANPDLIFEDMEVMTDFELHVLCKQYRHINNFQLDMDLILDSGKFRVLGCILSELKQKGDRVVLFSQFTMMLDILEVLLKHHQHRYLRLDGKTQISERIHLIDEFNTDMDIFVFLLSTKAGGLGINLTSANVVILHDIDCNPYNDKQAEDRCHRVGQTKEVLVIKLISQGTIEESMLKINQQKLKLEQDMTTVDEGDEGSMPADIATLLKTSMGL
The assay is described as follows: co-IP; purified full-length SMARCAD1 and KAP1 from E. coli, 7μg each in 280μL SK binding buffer, 200mM NaCl, 4°C; immunoprecipitated with anti-FLAG M2 affinity gel.

The text below walks through data of paper PMC6688830, “A Ubiquitin-Binding Domain that Binds a Structural Fold Distinct from that of Ubiquitin” (Structure(London, England:1993), 2019).

For orientation: Kd means the concentration at which binding is half-saturated.

B1: FLAG-CUE1,2 P170A (domain or fragment, human, UniProt Q9H4L7 95-347, looked up)
chain: SSDSEDVVSPNCSNTVQEKTFNKDTVIIVSEPSEDEESQGLPTMARRNDDISELEDLSELEDLKDAKLQTLKELFAQRSDNDLLKLIESTSTMDGAIAAALLMFGDAGGGPRKRKLSSSSEPYEEDEFNDDQSIKKTRLDHGEESNESAESSSNWEKQESIVLKLQKEFPNFDKQELREVLKEHEWMYTEALESLKVFAEDQDMQYVSQSEVPNGKEVSSRSQNYPKNATKTKLKQKFSMKAQNGFNKKRKKN
notes: SMARCAD1, human, UniProt Q9H4L7, CUE1,2 fragment S95-N347; source: E. coli BL-21 CodonPlus (DE3)-RIL, purified (Ni-NTA, Ulp1, Mono Q if required)
Turning to B1, the binding result in assay [1] is listed as “binds”.

B2: FLAG-CUE1,2 L195A (domain or fragment, human, UniProt Q9H4L7 95-347, looked up)
chain: SSDSEDVVSPNCSNTVQEKTFNKDTVIIVSEPSEDEESQGLPTMARRNDDISELEDLSELEDLKDAKLQTLKELFPQRSDNDLLKLIESTSTMDGAIAAAALMFGDAGGGPRKRKLSSSSEPYEEDEFNDDQSIKKTRLDHGEESNESAESSSNWEKQESIVLKLQKEFPNFDKQELREVLKEHEWMYTEALESLKVFAEDQDMQYVSQSEVPNGKEVSSRSQNYPKNATKTKLKQKFSMKAQNGFNKKRKKN
notes: as for B1
As to B2, in assay [1], the binding result was “binds”.

B3: FLAG-CUE1,2 K161A (domain or fragment, human, UniProt Q9H4L7 95-347, looked up)
chain: SSDSEDVVSPNCSNTVQEKTFNKDTVIIVSEPSEDEESQGLPTMARRNDDISELEDLSELEDLKDAALQTLKELFPQRSDNDLLKLIESTSTMDGAIAAALLMFGDAGGGPRKRKLSSSSEPYEEDEFNDDQSIKKTRLDHGEESNESAESSSNWEKQESIVLKLQKEFPNFDKQELREVLKEHEWMYTEALESLKVFAEDQDMQYVSQSEVPNGKEVSSRSQNYPKNATKTKLKQKFSMKAQNGFNKKRKKN
notes: as for B1
Consider B3, for which the binding result in assay [1] is recorded as “binds”.

B4: FLAG-CUE1,2 D188A (domain or fragment, human, UniProt Q9H4L7 95-347, looked up)
chain: SSDSEDVVSPNCSNTVQEKTFNKDTVIIVSEPSEDEESQGLPTMARRNDDISELEDLSELEDLKDAKLQTLKELFPQRSDNDLLKLIESTSTMAGAIAAALLMFGDAGGGPRKRKLSSSSEPYEEDEFNDDQSIKKTRLDHGEESNESAESSSNWEKQESIVLKLQKEFPNFDKQELREVLKEHEWMYTEALESLKVFAEDQDMQYVSQSEVPNGKEVSSRSQNYPKNATKTKLKQKFSMKAQNGFNKKRKKN
notes: as for B1
As for B4, the binding result in assay [1] is “binds”.

B5: FLAG-CUE1,2 K166A (domain or fragment, human, UniProt Q9H4L7 95-347, looked up)
chain: SSDSEDVVSPNCSNTVQEKTFNKDTVIIVSEPSEDEESQGLPTMARRNDDISELEDLSELEDLKDAKLQTLAELFPQRSDNDLLKLIESTSTMDGAIAAALLMFGDAGGGPRKRKLSSSSEPYEEDEFNDDQSIKKTRLDHGEESNESAESSSNWEKQESIVLKLQKEFPNFDKQELREVLKEHEWMYTEALESLKVFAEDQDMQYVSQSEVPNGKEVSSRSQNYPKNATKTKLKQKFSMKAQNGFNKKRKKN
notes: as for B1
As to B5, the binding result in assay [1] is “binds”.

B6: FLAG-CUE1,2 A192G (domain or fragment, human, UniProt Q9H4L7 95-347, looked up)
chain: SSDSEDVVSPNCSNTVQEKTFNKDTVIIVSEPSEDEESQGLPTMARRNDDISELEDLSELEDLKDAKLQTLKELFPQRSDNDLLKLIESTSTMDGAIGAALLMFGDAGGGPRKRKLSSSSEPYEEDEFNDDQSIKKTRLDHGEESNESAESSSNWEKQESIVLKLQKEFPNFDKQELREVLKEHEWMYTEALESLKVFAEDQDMQYVSQSEVPNGKEVSSRSQNYPKNATKTKLKQKFSMKAQNGFNKKRKKN
notes: as for B1
Regarding B6, the binding result in assay [1] is recorded as “binds”.

B7: FLAG-CUE1,2 E167A (domain or fragment, human, UniProt Q9H4L7 95-347, looked up)
chain: SSDSEDVVSPNCSNTVQEKTFNKDTVIIVSEPSEDEESQGLPTMARRNDDISELEDLSELEDLKDAKLQTLKALFPQRSDNDLLKLIESTSTMDGAIAAALLMFGDAGGGPRKRKLSSSSEPYEEDEFNDDQSIKKTRLDHGEESNESAESSSNWEKQESIVLKLQKEFPNFDKQELREVLKEHEWMYTEALESLKVFAEDQDMQYVSQSEVPNGKEVSSRSQNYPKNATKTKLKQKFSMKAQNGFNKKRKKN
notes: as for B1
With B7, the binding result in assay [1] is “binds”.

B8: FLAG-CUE1,2 L196A (domain or fragment, human, UniProt Q9H4L7 95-347, looked up)
chain: SSDSEDVVSPNCSNTVQEKTFNKDTVIIVSEPSEDEESQGLPTMARRNDDISELEDLSELEDLKDAKLQTLKELFPQRSDNDLLKLIESTSTMDGAIAAALAMFGDAGGGPRKRKLSSSSEPYEEDEFNDDQSIKKTRLDHGEESNESAESSSNWEKQESIVLKLQKEFPNFDKQELREVLKEHEWMYTEALESLKVFAEDQDMQYVSQSEVPNGKEVSSRSQNYPKNATKTKLKQKFSMKAQNGFNKKRKKN
notes: as for B1
B8: the binding result in assay [1] is recorded as “binds”.

B9: FLAG-CUE1,2 Q171A (domain or fragment, human, UniProt Q9H4L7 95-347, looked up)
chain: SSDSEDVVSPNCSNTVQEKTFNKDTVIIVSEPSEDEESQGLPTMARRNDDISELEDLSELEDLKDAKLQTLKELFPARSDNDLLKLIESTSTMDGAIAAALLMFGDAGGGPRKRKLSSSSEPYEEDEFNDDQSIKKTRLDHGEESNESAESSSNWEKQESIVLKLQKEFPNFDKQELREVLKEHEWMYTEALESLKVFAEDQDMQYVSQSEVPNGKEVSSRSQNYPKNATKTKLKQKFSMKAQNGFNKKRKKN
notes: as for B1
B9: in assay [1], the binding result is given as “binds”.

B10: FLAG-CUE1 (domain or fragment, human, UniProt Q9H4L7 95-237, looked up)
chain: SSDSEDVVSPNCSNTVQEKTFNKDTVIIVSEPSEDEESQGLPTMARRNDDISELEDLSELEDLKDAKLQTLKELFPQRSDNDLLKLIESTSTMDGAIAAALLMFGDAGGGPRKRKLSSSSEPYEEDEFNDDQSIKKTRLDHGE
notes: SMARCAD1, human, UniProt Q9H4L7, residues S95-E237 (first CUE domain); also called wild-type CUE1 fragment (S95-E237); SMARCAD1 CUE1; source: E. coli BL-21 CodonPlus (DE3)-RIL, purified (Ni-NTA, Ulp1, Mono Q if required)
In the case of B10, the figures for the Kd in assay [2] and in assay [3] were approximately 0.158 µM and approximately 952 µM, respectively.

B11: HA-KAP1 (natural protein, human, UniProt Q13263 1-835, looked up)
chain: MAASAAAASAAAASAASGSPGPGEGSAGGEKRSTAPSAAASASASAAASSPAGGGAEALELLEHCGVCRERLRPEREPRLLPCLHSACSACLGPAAPAAANSSGDGGAAGDGTVVDCPVCKQQCFSKDIVENYFMRDSGSKAATDAQDANQCCTSCEDNAPATSYCVECSEPLCETCVEAHQRVKYTKDHTVRSTGPAKSRDGERTVYCNVHKHEPLVLFCESCDTLTCRDCQLNAHKDHQYQFLEDAVRNQRKLLASLVKRLGDKHATLQKSTKEVRSSIRQVSDVQKRVQVDVKMAILQIMKELNKRGRVLVNDAQKVTEGQQERLERQHWTMTKIQKHQEHILRFASWALESDNNTALLLSKKLIYFQLHRALKMIVDPVEPHGEMKFQWDLNAWTKSAEAFGKIVAERPGTNSTGPAPMAPPRAPGPLSKQGSGSSQPMEVQEGYGFGSGDDPYSSAEPHVSGVKRSRSGEGEVSGLMRKVPRVSLERLDLDLTADSQPPVFKVFPGSTTEDYNLIVIERGAAAAATGQPGTAPAGTPGAPPLAGMAIVKEEETEAAIGAPPTATEGPETKPVLMALAEGPGAEGPRLASPSGSTSSGLEVVAPEGTSAPGGGPGTLDDSATICRVCQKPGDLVMCNQCEFCFHLDCHLPALQDVPGEEWSCSLCHVLPDLKEEDGSLSLDGADSTGVVAKLSPANQRKCERVLLALFCHEPCRPLHQLATDSTFSLDQPGGTLDLTLIRARLQEKLSPPYSSPQEFAQDVGRMFKQFNKLTEDKADVQSIIGLQRFFETRMNEAFGDTKFSAVLVEPPPMSLPGAGLSSQELSGGPGDGP
notes: KAP1 (TRIM28), human, UniProt Q13263, full length; also called hemagglutinin-tagged KAP1; TRIM28; source: E. coli BL-21 CodonPlus (DE3)-RP, purified (HisTrap, Ulp1, heparin, Sephacryl S-400)
Turning to B11, the binding result in assay [4] was “binds”.
